Experimental findings from patent publication US20250011363A1, “OPTIMIZED SHORTENED PEPTIDE THAT BINDS TO ACETYLCHOLINE RECEPTOR, AND USE THEREOF” (SKINMED CO., LTD., priority 2021, published 2025) are described below.

In this assay the target is acetylcholine receptor. The assay can be described thus: SPR, AchR immobilised on chip, peptide 10 uM. A general note: In SPR one partner is held on a chip, and binding of the other changes the refractive index at the surface.

KPHGR [5mer-1146]: the Binding affinity (RU) turned out to be 23 RU.

RRRICR [6mer-1-212]: the Binding affinity (RU) was determined as 148 RU.

For KIDMK [5mer-824], the Binding affinity (RU) is 13 RU.

In turn, RENHK [5mer-1138] yielded a Binding affinity (RU) of 24 RU.

In turn, RMNIK [5mer-834] registered a Binding affinity (RU) of 15 RU.

Molecule RAKGK [5mer-822] had a Binding affinity (RU) of 16 RU.

In turn, KKAGR [5mer-827] came in with a Binding affinity (RU) of 18 RU.

RIADR [5mer-1127] returned a Binding affinity (RU) of 16 RU.

For the molecule RNEFK [5mer-1140], the Binding affinity (RU) was found to be 28 RU.

Turning to RPDWR [5mer-846], the Binding affinity (RU) amounted to 32 RU.

Turning to KAPEK [5mer-847], the Binding affinity (RU) worked out at 28 RU.

RIDGK [5mer-830]: the Binding affinity (RU) is 25 RU.

For the molecule KKRQRR [6mer-1-204], the Binding affinity (RU) came to 154 RU.

Regarding KKQVTR [6mer-1-218], the Binding affinity (RU) was 126 RU.

Molecule KRWRLR [6mer-1-205] had a Binding affinity (RU) of 133 RU.

As for RYPFK [5mer-1125], the Binding affinity (RU) was 29 RU.

Turning to KTTPK [5mer-843], the Binding affinity (RU) was determined as 17 RU.

In turn, KRVLQR [6mer-1-217] showed a Binding affinity (RU) of 135 RU.

KCSMK [5mer-1133]: the Binding affinity (RU) was determined as 23 RU.

With RNTDR [5mer-1122], the Binding affinity (RU) came out at 14 RU.

Turning to KATAK [5mer-833], the Binding affinity (RU) was determined as 33 RU.

For the molecule RRQLTK [6mer-1-202], the Binding affinity (RU) stood at 154 RU.

Molecule KRRVRK [6mer-1-213] had a Binding affinity (RU) of 127 RU.

Regarding KCWHR [5mer-829], the Binding affinity (RU) was found to be 26 RU.

Take KECFK [5mer-823]: the Binding affinity (RU) amounted to 26 RU.

Regarding RRSYCK [6mer-1-214], the Binding affinity (RU) came out at 139 RU.

For the molecule KNEMR [5mer-841], the Binding affinity (RU) came to 22 RU.

RHSMK [5mer-838] came in with a Binding affinity (RU) of 13 RU.

For KKQLLR [6mer-1-211], the Binding affinity (RU) stood at 123 RU.

In the case of RFMMR [5mer-835], the Binding affinity (RU) worked out at 14 RU.

REWVR [5mer-1128] showed a Binding affinity (RU) of 26 RU.

Regarding RHHDK [5mer-839], the Binding affinity (RU) amounted to 26 RU.

In the case of RYEDR [5mer-845], the Binding affinity (RU) was 15 RU.

Regarding RKGYTR [6mer-1-209], the Binding affinity (RU) came out at 121 RU.

In turn, RPMDR [5mer-837] displayed a Binding affinity (RU) of 28 RU.

Turning to KFSMK [5mer-1132], the Binding affinity (RU) was 19 RU.

Molecule RHTAR [5mer-1135] displayed a Binding affinity (RU) of 17 RU.

Consider RMHER [5mer-832], for which the Binding affinity (RU) turned out to be 18 RU.

Consider RRLFCR [6mer-1-219], for which the Binding affinity (RU) worked out at 121 RU.

KHCWK [5mer-1139] returned a Binding affinity (RU) of 28 RU.

In the case of REEVR [5mer-1141], the Binding affinity (RU) was 26 RU.

For the molecule RYMVK [5mer-848], the Binding affinity (RU) amounted to 12 RU.

KKSQQR [6mer-1-207] yielded a Binding affinity (RU) of 151 RU.

With RAAGK [5mer-831], the Binding affinity (RU) was 24 RU.

In turn, REWNR [5mer-836] returned a Binding affinity (RU) of 15 RU.

For the molecule KCDGK [5mer-1131], the Binding affinity (RU) was found to be 14 RU.

Molecule RATGK [5mer-1143] gave a Binding affinity (RU) of 19 RU.

With KEEEK [5mer-1137], the Binding affinity (RU) came to 22 RU.

Regarding KTENK [5mer-1142], the Binding affinity (RU) was 24 RU.

In turn, RFMVR [5mer-1130] showed a Binding affinity (RU) of 17 RU.

For RDWFR [5mer-1148], the Binding affinity (RU) worked out at 24 RU.

RRLQTR [6mer-1-206] had a Binding affinity (RU) of 121 RU.

With KYEKR [5mer-1123], the Binding affinity (RU) came to 24 RU.

RRQITR [6mer-1-203] had a Binding affinity (RU) of 142 RU.

RDTGK [5mer-1147] showed a Binding affinity (RU) of 16 RU.

Regarding RTCKR [5mer-1134], the Binding affinity (RU) was found to be 26 RU.

Consider KPTHK [5mer-1126], for which the Binding affinity (RU) was 26 RU.

KFDAR [5mer-1129]: the Binding affinity (RU) was found to be 14 RU.

RFKVK [5mer-1121] yielded a Binding affinity (RU) of 29 RU.

The molecule RDEKK [5mer-825] showed a Binding affinity (RU) of 14 RU.

Turning to KKPVK [5mer-1124], the Binding affinity (RU) was 30 RU.

For KTDPR [5mer-844], the Binding affinity (RU) was found to be 32 RU.

The molecule RMPAK [5mer-1145] yielded a Binding affinity (RU) of 25 RU.

Regarding KRSIQR [6mer-1-208], the Binding affinity (RU) was determined as 122 RU.

RKSIQR [6mer-1-216] returned a Binding affinity (RU) of 148 RU.

On to KCKMK [5mer-826], for which the Binding affinity (RU) was 11 RU.

For the molecule KDTAR [5mer-840], the Binding affinity (RU) amounted to 11 RU.

RHNVK [5mer-842] gave a Binding affinity (RU) of 20 RU.

Molecule RFCWR [5mer-828] came in with a Binding affinity (RU) of 27 RU.

With RKRYSR [6mer-1-215], the Binding affinity (RU) was 136 RU.

KNSAR [5mer-1136] yielded a Binding affinity (RU) of 25 RU.

KAKNR [5mer-1144] returned a Binding affinity (RU) of 33 RU.
